The test concerns SOD-2 mRNA in NTM-115 cells. In words: RT-qPCR of SOD-2 mRNA in NTM-115 TM cells treated with SAA. The conditions noted are these: rhSAA 40 ug/ml, 24 hr, compared to untreated cells, FIG. 4. It counts as cell-based. As to the method: SOD-2 mRNA levels in FIG. 1 were measured using real-time quantitative PCR (RT-qPCR). In the RT-qPCR protocol used in one embodiment of the present invention, total RNA was extracted from cultured TM cells or from RNAlater-preserved ocular tissues by using a commercial kit of RNAqueous-4 PCR (Ambion, Austin, Tex.) according to the manufacturer's instructions. RNA quality was assessed by agarose gel electrophoresis or with a 2100 Bioanalyer (Agilent). cDNA was synthesized using MultiScribe reverse transcriptase and random hexamers (PE Applied Biosystems, Foster City, Calif.). Real-time PCR was performed using the ABI Prism 7700 Sequence Detection System according to the manufacturer's instructions (Applied Biosystems, Foster City, Calif.). […] Relative RNA concentrations were determined by comparison to a standard curve generated by different dilutions of TM cell cDNA. […]
In this embodiment, a TM cell line is treated with SAA, which causes overexpression of SOD-2. After addition of the test compound or appropriate vehicle control, the levels of SOD-2 are measured in the test and control replicates via qPCR using the protocol given in the description accompanying FIG. 1. […]
In general terms: Real-time PCR tracks product formation cycle by cycle.

B1: serum amyloid A (protein, UniProt P0DJI8 19-122, looked up)
Serum amyloid A-1 protein: RSFFSFLGEAFDGARDMWRAYSDMREANYIGSDKYFHARGNYDAAKRGPGGAWAAEVITDARENIQRFFGHGAEDSLADQAANEWGRSGKDPNHFRPAGLPEKY
notes: acute-phase reactant protein; recombinant human SAA used to induce SOD-2 overexpression in TM cells
In the case of B1, the “SOD-2 mRNA levels” value is recorded as “increased levels of SOD-2 mRNA”.

The values are drawn from patent US7807363B2, “Superoxide dismutase-2 expression for glaucoma diagnosis” (Alcon Research, Ltd., priority 2006, dated 2010).
